Test results taken from patent US11939397B2, “ENTPD2 antibodies, combination therapies, and methods of using the antibodies and combination therapies” (Novartis AG, priority 2018, dated 2024).

Key:
[1] = system: human ENTPD2 engineered B16LM3 clone B5 tumor; assay: Human ENTPD2 engineered B16LM3 clone B5 xenograft model, combination with A2AR antagonist NIR178; type: in vivo; conditions: NIR178 p.o. 4 days on and 3 days off at either 50 or 200 mg/kg with isotype control 10 mg/kg
Method: Human ENTPD2-engineered B16LM3 clone B5 was established in female C57BL/6 mice by subcutaneous injection of 0.5×10^6 cells into the right flank of each mouse. Once tumors reached approximately 50 mm^3, mice were randomized according to tumor volume into treatment groups (n=8 per group). Mice received an intravenous (i.v.) treatment of either anti-ENTPD2 mAb1 at a final dose of 10/mg/kg or a non-specific human IgG1 isotype control 10 mg/kg on day 1 of study. NIR178 was administered per os (p.o.) for 4 days on and 3 days off, starting at the beginning of study at either 50 mg/kg or 200 mg/kg. All doses were adjusted to individual mouse body weights. The study was carried out for thirteen days post treatment initiation and tumor volumes were assessed every other day to assess efficacy.

[2] = target: T1, recombinant human ENTPD2 (residues 29-462) (Homo sapiens, UniProt Q9Y5L3); assay: Biochemical human ENTPD2 functional assay (Transcreener ADP2 TR-FRET); conditions: FIG. 15
T1 construct: residues 29-462 of human or cyno ENTPD2 were cloned into expression vector; GP67 signal peptide (N); made in house; host or cells: High Five (Trichoplusia ni) insect cells, baculovirus
T1 sequence (Q9Y5L3 29-462): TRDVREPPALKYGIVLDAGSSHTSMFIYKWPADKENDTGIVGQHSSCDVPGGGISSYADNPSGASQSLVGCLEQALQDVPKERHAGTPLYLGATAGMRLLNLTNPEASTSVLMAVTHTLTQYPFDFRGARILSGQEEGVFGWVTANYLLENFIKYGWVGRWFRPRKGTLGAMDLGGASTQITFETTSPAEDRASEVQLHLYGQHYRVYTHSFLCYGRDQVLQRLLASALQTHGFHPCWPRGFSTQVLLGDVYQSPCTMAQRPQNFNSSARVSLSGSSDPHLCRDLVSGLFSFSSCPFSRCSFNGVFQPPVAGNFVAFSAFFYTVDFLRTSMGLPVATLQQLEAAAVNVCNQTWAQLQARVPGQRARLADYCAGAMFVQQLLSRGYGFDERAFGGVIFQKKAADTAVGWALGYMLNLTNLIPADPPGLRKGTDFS
Source text: Biochemical and cell-based functional assays were developed in-house to understand functional impact of anti-ENTPD2 Abs against purified extracellular domain of ENTPD2 (residues 29-462), as well as against the fully intact protein in the context of the native cell-based conformation. ENTPD2 hydrolyzes ATP to ADP, which can subsequently be detected using the HTRF Transcreener ADP2 TR-FRET Red Assay (BellBrook Labs, Madison, WI) where ENTPD2-produced ADP would compete with the ADP Tracer for binding to the anti-ADP-Tb antibody. The resulting signal is inversely proportional to the concentration of ADP in the sample. […]
HTRF signal (Emission at 620 nm and 665 nm) was assessed in both assays using the Envision plate reader in HTRF mode (Perkin Elmer, Waltham, MA). HTRF ratio was determined using the following formula: HTRF ratio=R=Emission at 665 nm/Emission at 620 nm×10,000. Subsequently % Residual Activity and % Inhibition were determined as follows:
Where R0% is the HTRF ratio of the negative control (0% enzyme activity), and R100% is the HTRF ratio of the positive control (100% enzyme activity). Data were analyzed in Microsoft Excel and graphed using GraphPad's Prism 7.0 software and IC50 values were obtained using non-linear regression, log (agonist) vs. response-variable slope (four parameters) analysis.

[3] = target: T2, ENTPD2 (Homo sapiens, UniProt Q9Y5L3); assay: Hybridoma mAb screen, cell-based assay for inhibition of ATP hydrolysis by ENTPD2; conditions: hybridoma-derived mAbs
T2 sequence (Q9Y5L3 1-495): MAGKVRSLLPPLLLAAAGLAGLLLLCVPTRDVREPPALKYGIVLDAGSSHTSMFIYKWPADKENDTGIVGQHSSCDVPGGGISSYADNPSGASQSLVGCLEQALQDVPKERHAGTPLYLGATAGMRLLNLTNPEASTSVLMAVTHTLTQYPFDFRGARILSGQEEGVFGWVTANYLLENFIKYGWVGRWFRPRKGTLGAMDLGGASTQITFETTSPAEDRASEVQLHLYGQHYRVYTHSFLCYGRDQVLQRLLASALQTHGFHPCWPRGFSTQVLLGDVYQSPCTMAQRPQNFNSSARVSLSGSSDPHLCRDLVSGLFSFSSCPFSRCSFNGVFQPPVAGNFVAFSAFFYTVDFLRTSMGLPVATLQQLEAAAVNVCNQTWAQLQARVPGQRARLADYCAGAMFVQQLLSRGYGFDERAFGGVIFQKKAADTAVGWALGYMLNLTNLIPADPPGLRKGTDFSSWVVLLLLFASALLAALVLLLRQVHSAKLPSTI
Source text: Hybridoma-derived mAbs were screened in a cell-based assay for inhibition of ATP hydrolysis by ENTPD2.

| Molecule | anti-tumor efficacy, non-specific isotype control and NIR178 [1] | inhibition of the catalytic activity of the recombinant human ENTPD2 [2] | inhibition of ATP hydrolysis by ENTPD2 (screen outcome) [3] |
| --- | --- | --- | --- |
| Nc1nc(-n2cccn2)nc(-n2cccn2)c1Br [NIR178, 5-bromo-2,6-di-(1H-pyrazol-1-yl)pyrimidine-4-amine] | No significant anti-tumor efficacy | – | – |
| mAb17: hybridoma-derived lead inhibitory anti-human ENTPD2 mAb (antibody, V domains shown) VH: EVQLQQFGAELVKPGASVKISCKASGYTFTDYNMDWVKQSHGKSLEWIGDINPKYDISTYNQQFKGKATLTVDKSSSTAYMELRSLTSEDTAVYYCARRGFFLYYGINYYYFDVWGAGTTVTVSS VL: QIVLTQSPAIMSASLGEEITLTCSASSSVSYIHWYQQKSGTSPTLLIYSTSNLASGVPSRFSGSGSGTFYSLTISSVEAEDAADYYCHQWSSYPWTFGGGTKLEIK | – | potently inhibit | lead inhibitory |
